Substitutions are numbered along the chain they refer to. Numbers in names are those of the source.
B1: anti-CD20 human IgG1 L234G/L235I/G236R (antibody)
heavy: QVQLQQPGAELVKPGASVKMSCKASGYTFTSYNMHWVKQTPGRGLEWIGAIYPGNGDTSYNQKFKGKATLTADKSSSTAYMQLSSLTSEDSAVYYCARSTYYGGDWYFNVWGAGTTVTVSSASTKGPSVFPLAPSSKSTSGGTAALGCLVKDYFPEPVTVSWNSGALTSGVHTFPAVLQSSGLYSLSSVVTVPSSSLGTQTYICNVNHKPSNTKVDKKVEPKSCDKTHTCPPCPAPEGIRGPSVFLFPPKPKDTLMISRTPEVTCVVVDVSHEDPEVKFNWYVDGVEVHNAKTKPREEQYNSTYRVVSVLTVLHQDWLNGKEYKCKVSNKALPAPIEKTISKAKGQPREPQVYTLPPSRDELTKNQVSLTCLVKGFYPSDIAVEWESNGQPENNYKTTPPVLDSDGSFFLYSKLTVDKSRWQQGNVFSCSVMHEALHNHYTQKSLSLSPGK
light: QIVLSQSPAILSASPGEKVTMTCRASSSVSYIHWFQQKPGSSPKPWIYATSNLASGVPVRFSGSGSGTSYSLTISRVEAEDAATYYCQQWTSNPPTFGGGTKLEIKRTVAAPSVFIFPPSDEQLKSGTASVVCLLNNFYPREAKVQWKVDNALQSGNSQESVTEQDSKDSTYSLSSTLTLSKADYEKHKVYACEVTHQGLSSPVTKSFNRGEC
notes: also called 1-52; copies: 2 + 2
B2: anti-CD20 human IgG1 L234G/L235Q/G236R (antibody)
heavy: B1 heavy with I239Q
light: B1 light
notes: also called 1-57; 2-18; copies: 2 + 2
B3: anti-CD20 human IgG1 L234G/L235K/G236R (antibody)
heavy: B1 heavy with I239K
light: B1 light
notes: also called 1-53; copies: 2 + 2
B4: anti-CD20 human IgG1 L234H/L235A/G236R (antibody)
heavy: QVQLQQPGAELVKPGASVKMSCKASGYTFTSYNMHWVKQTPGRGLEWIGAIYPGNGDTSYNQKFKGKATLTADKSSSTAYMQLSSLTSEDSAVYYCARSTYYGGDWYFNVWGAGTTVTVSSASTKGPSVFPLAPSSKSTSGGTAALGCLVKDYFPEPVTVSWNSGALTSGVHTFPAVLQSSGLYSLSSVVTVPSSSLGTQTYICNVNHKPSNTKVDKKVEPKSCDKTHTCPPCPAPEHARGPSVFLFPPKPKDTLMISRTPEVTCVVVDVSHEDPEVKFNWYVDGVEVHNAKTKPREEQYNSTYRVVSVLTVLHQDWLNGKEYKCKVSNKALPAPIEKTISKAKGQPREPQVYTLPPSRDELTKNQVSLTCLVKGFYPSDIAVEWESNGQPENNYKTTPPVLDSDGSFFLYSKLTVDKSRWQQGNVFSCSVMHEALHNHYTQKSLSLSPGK
light: B1 light
notes: also called 1-62; copies: 2 + 2
B5: anti-CD20 human IgG1 L234H/L235D/G236R (antibody)
heavy: B1 heavy with G238H, I239D
light: B1 light
notes: also called 1-63; copies: 2 + 2
B6: anti-CD20 human IgG1 L234H/L235E/G236R (antibody)
heavy: B1 heavy with G238H, I239E
light: B1 light
notes: also called 1-64; copies: 2 + 2
B7: anti-CD20 human IgG1 L234H/L235G/G236R (antibody)
heavy: B1 heavy with G238H, I239G
light: B1 light
notes: also called 1-65; copies: 2 + 2
B8: anti-CD20 human IgG1 L234G/L235R/G236R (antibody)
heavy: B1 heavy with I239R
light: B1 light
notes: also called 1-58; copies: 2 + 2
B9: anti-CD20 human IgG1 L234G/L235T/G236R (antibody)
heavy: B1 heavy with I239T
light: B1 light
notes: also called 1-60; copies: 2 + 2
B10: anti-CD20 human IgG1 L234G/L235M/G236R (antibody)
heavy: B1 heavy with I239M
light: B1 light
notes: also called 1-55; copies: 2 + 2
B11: anti-CD20 human IgG1 L234G/L235N/G236R (antibody)
heavy: B1 heavy with I239N
light: B1 light
notes: also called 1-56; copies: 2 + 2
B12: anti-CD20 human IgG1 L234H/L235H/G236R (antibody)
heavy: B1 heavy with G238H, I239H
light: B1 light
notes: also called 1-66; copies: 2 + 2

Molecular target: T1, Histidine-tagged recombinant human FcγRI (CD64) (human, UniProt P12314 16-288)
T1 construct: bought; also called Sino Biological Cat. No. 12056-H08H
Test: SPR, culture supernatant, captured His-FcγRI;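 further: biacore T200 SPR at 25 °C, anti-His capture, supernatants of HEK293 cells expressing IgG1 Fc variants injected 1 min, reference-subtracted response read 55 s after injection start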

Binder	Mean binding response
B1	29.2 RU
B2	13.6 RU
B3	27.4 RU
B4	29.4 RU
B5	38.5 RU
B6	22.8 RU
B7	31.6 RU
B8	29.3 RU
B9	26.5 RU
B10	23.2 RU
B11	26.8 RU
B12	36.3 RU

From patent US20230235013A1 (MABSOLVE, published 2023)
